Laboratory results: patent US12673101B2, “Varicella zoster” (ADJUVANCE TECHNOLOGIES, INC., priority 2019, dated 2026)
Structures can show the parent of a compound that is named as a salt.

Tests used:
Type in all cases: in vivo, Varicella zoster virus
gE antigen [1] = test: Mice immunized with gE and liposomal adjuvant (Example 1): gE-specific total IgG titers
Protocol: (§1) The impact of TQL-1055 free acid (Compound I-4 free acid) on antibody titers induced by gE antigen was tested. Mice were immunized with gE (5 mcg) alone, gE (5 mcg) with blank liposomes, gE (5 mcg) with liposomes containing PHAD (7.5 mcg), gE (5 mcg) with liposomes containing PHAD (7.5 mcg) and TQL-1055 free acid (four groups: 5 mcg, 15 mcg, 30 mcg, 50 mcg), and gE (5 mcg) with liposomes containing MPL® (7.5 mcg) and QS-21 (5 mcg). Mice were immunized at Day 0 and Day 14. Groups were bled at Day 14 (post Dose 1) and Day 28 (post Dose 2) for serum analysis for anti-gE specific antibody response.
(§2) Log 10 transformed GMT were compared using One-way ANOVA. Groupwise comparisons were made and p-values adjusted for multiple comparisons with Tukey's post-hoc test. Groups 1 and 2 were excluded from the analysis. Family-wise α=0.05.

gE antigen [2] = test: Mice immunized with gE and liposomal adjuvant (Example 1): gE-specific total IgG1 titers
Protocol: as §1, §2

gE antigen [3] = test: Mice immunized with gE and liposomal adjuvant (Example 1): gE-specific total IgG2c titers; conditions: post dose 1, 50 mcg TQL-1055 free acid with PHAD liposomes
Protocol: as §1, §2

gE antigen [4] = test: Mice immunized with gE, TQL-1055 choline salt with or without PHAD liposomes (Example 2): anti-gE IgG endpoint titers
Protocol: The impact of TQL-1055 choline salt (Compound I-4 choline salt) on antibody titers induced by gE antigen was tested. Mice were immunized with gE (5 mcg) alone, gE (5 mcg) with liposomes containing PHAD (5 mcg), gE (5 mcg) with liposomes containing PHAD (5 mcg) and TQL-1055 choline salt (five groups: 5 mcg, 10 mcg, 20 mcg, 40 mcg, 80 mcg), and gE (5 mcg) with TQL-1055 choline salt (five groups: 5 mcg, 10 mcg, 20 mcg, 40 mcg, 80 mcg). Mice were immunized at Day 0 and Day 14. Groups were bled at Day 13 (post Dose 1) and Day 28 (post Dose 2) for serum analysis.

gE antigen [5] = test: Mice immunized with gE, oil-in-water emulsion (L2), TQL-1055 and PHAD liposomes (Example 3): anti-gE IgG endpoint titers; conditions: mice immunized Day 0 and Day 14
Protocol: The impact of an oil-in-water emulsion containing TQL-1055 free acid (Compound I-4 free acid), TQL-1055 choline salt (Compound I-4 choline salt), PHAD liposomes, and combinations thereof on antibody titers induced by gE antigen was tested. Mice were immunized with PBS alone, gE (5 mcg) alone, gE (5 mcg) in an oil-in-water emulsion (L2), gE (5 mcg) and TQL-1055 choline salt (three groups: 5 mcg, 30 mcg, 100 mcg), gE (5 mcg) in an oil-in-water emulsion (L2) with TQL-1055 free acid (three groups: 5 mcg, 30 mcg, 100 mcg), gE (5 mcg) in an oil-in-water emulsion (L2) with TQL-1055 free acid (three groups: 5 mcg, 30 mcg, 100 mcg) and PHAD liposomes (20 mcg), and gE (5 mcg) with PHAD liposomes (20 mcg). Mice were immunized at Day 0 and Day 14. Groups were bled at Day 13 (post Dose 1) and Day 28 (post Dose 2) for serum analysis.

[6] = mice immunized Day 0 and Day 14, serum Day 28 (post Dose 2)

CC1O[C@@H](OC2C(O)[C@@H](NC(=O)CCCCCCCCCCC(=O)O)C(CO)O[C@H]2OC(=O)[C@]23CCC(C)(C)CC2C2=CCC4C5(C)CC[C@H](O)C(C)(C=O)C5CCC4(C)[C@]2(C)CC3O)C(O)C(O)[C@H]1O[C@@H]1OC[C@@H](O)C(O)C1O (stereo partly shown) [TQL-1055 free acid]
gE-specific total IgG GMT compared to Group 7 (gE antigen [1]; mice, post dose 2, 50 mcg TQL-1055 free acid with PHAD liposomes, not statistically significant): trended higher | gE-specific IgG1 GMT compared to Group 7 (gE antigen [2]; mice, post dose 1, 50 mcg TQL-1055 free acid with PHAD liposomes): significantly higher | gE-specific IgG2c GMT compared to Group 7 (gE antigen [3]): significantly higher

CC1O[C@@H](OC2C(O)[C@@H](NC(=O)CCCCCCCCCCC(=O)O)C(CO)O[C@H]2OC(=O)[C@]23CCC(C)(C)CC2C2=CCC4C5(C)CC[C@H](O)C(C)(C=O)C5CCC4(C)[C@]2(C)CC3O)C(O)C(O)[C@H]1O[C@@H]1OC[C@@H](O)C(O)C1O (stereo partly shown) [TQL-1055 choline salt]
titers compared to groups including TQL-1055 free acid (Example 1) (gE antigen [4]; after the first dose): trend to higher titers | titers compared to groups including TQL-1055 free acid (Example 1) (gE antigen [4]; after the second dose): trend to higher titers

B1: 5 mcg gE alone: VZV glycoprotein E (gE) antigen, 5 mcg, without adjuvant (protein, UniProt P09259 31-623, looked up)
Envelope glycoprotein E: SVLRYDDFHTDEDKLDTNSVYEPYYHSDHAESSWVNRGESSRKAYDHNSPYIWPRNDYDGFLENAHEHHGVYNQGRGIDSGERLMQPTQMSAQEDLGDDTGIHVIPTLNGDDRHKIVNVDQRQYGDVFKGDLNPKPQGQRLIEVSVEENHPFTLRAPIQRIYGVRYTETWSFLPSLTCTGDAAPAIQHICLKHTTCFQDVVVDVDCAENTKEDQLAEISYRFQGKKEADQPWIVVNTSTLFDELELDPPEIEPGVLKVLRTEKQYLGVYIWNMRGSDGTSTYATFLVTWKGDEKTRNPTPAVTPQPRGAEFHMWNYHSHVFSVGDTFSLAMHLQYKIHEAPFDLLLEWLYVPIDPTCQPMRLYSTCLYHPNAPQCLSHMNSGCTFTSPHLAQRVASTVYQNCEHADNYTAYCLGISHMEPSFGLILHDGGTTLKFVDTPESLSGLYVFVVYFNGHVEAVAYTVVSTVDHFVNAIEERGFPPTAGQPPATTKPKEITPVNPGTSPLLRYAAWTGGLAAVVLLCLVIFLICTAKRMRVKAYRVDKSPYNQSMYYAGLPVDDFEDSESTDTEEEFGNAIGGSHGGSSYTVYIDKTR
gE-specific total IgG titers post dose 2, GMT (gE antigen [1]; [6]): 949.8 | gE-specific total IgG1 titers post dose 2, GMT (gE antigen [2]; [6]): 793.1 | Day 13 Anti-gE GMT titer, 5 mcg PHAD in liposomes (gE antigen [4]; Day 13 (post Dose 1), with 5 mcg PHAD in liposomes): 19,037 | Day 13 Anti-gE GMT titer, without PHAD liposomes (gE antigen [4]; Day 13 (post Dose 1), without PHAD liposomes): 135 | Day 28 Anti-gE GMT titer, 5 mcg PHAD in liposomes (gE antigen [4]; Day 28 (post Dose 2), with 5 mcg PHAD in liposomes): 689,865 | Day 28 Anti-gE GMT titer, without PHAD liposomes (gE antigen [4]; Day 28 (post Dose 2), without PHAD liposomes): 12,311 | gE-specific total IgG titers post dose 1, Geometric mean (gE antigen [5]; serum Day 13 (post Dose 1)): 138.0 | gE-specific total IgG titers post dose 2, Geometric mean (gE antigen [5]; serum Day 28 (post Dose 2)): 5012
